These results are taken from patent US20130011875A1.

Assay [1] has as its target recombinant human Met-granulocyte colony-stimulating factor (rHuMetGCSF) (Homo sapiens) (UniProt P09919). As to the kind of experiment: cell-based or functional assay.
The target in assay [2] is TNFRII-Fc (tumor necrosis factor receptor 2 ectodomain fused to Fc region of IgG1). As to the kind of experiment: cell-based or functional assay.
TNFRII-Fc (tumor necrosis factor receptor 2 ectodomain fused to Fc region of IgG1), sequence (chain, as listed by the source limits assumed): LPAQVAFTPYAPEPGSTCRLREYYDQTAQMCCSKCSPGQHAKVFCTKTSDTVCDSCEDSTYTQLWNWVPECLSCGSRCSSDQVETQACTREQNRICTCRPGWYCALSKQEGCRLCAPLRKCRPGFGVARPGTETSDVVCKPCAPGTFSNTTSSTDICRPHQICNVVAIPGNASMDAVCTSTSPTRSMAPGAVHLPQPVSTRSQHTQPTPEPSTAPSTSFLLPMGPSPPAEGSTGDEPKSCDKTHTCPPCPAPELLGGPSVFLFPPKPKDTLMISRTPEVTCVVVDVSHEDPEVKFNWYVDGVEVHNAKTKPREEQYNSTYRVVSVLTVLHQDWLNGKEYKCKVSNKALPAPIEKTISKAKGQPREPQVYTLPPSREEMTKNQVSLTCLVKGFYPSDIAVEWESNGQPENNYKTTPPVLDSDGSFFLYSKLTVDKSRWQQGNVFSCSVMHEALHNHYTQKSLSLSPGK

As for “Pichia pastoris vacuolar protein sorting receptor 10-1 (Vps10-1) (from UniProt C4R192 21-1542)”, in assay [1], the relative rhGCSF titer in fermentation supernatant (GCSF ELISA), vps10-1 deletion mutant yGLY9933 against parental strain yGLY8538 is more than 7 fold. In assay [2], the relative TNFRII-Fc titer in deep-well plate supernatant (ELISA), vps10-1 deletion mutants yGLY9992 and yGLY9993 against parental wild-type strain yGLY8292 was 10 fold.
